Experimental findings from the supplement of paper PMC11246515 are described below.

This data set can be described thus: total protein half-life in vivo (active degradation + dilution); higher = more stable protein.
[1] abbreviates: E. coli NCM3722 delta-clpP delta-lon delta-hslV, growth: N-lim chemostat, doubling time 6 h.
Where [2] appears, read: E. coli NCM3722 delta-clpP, growth: N-lim chemostat, doubling time 6 h.
The mark [3] stands for this setting: E. coli NCM3722 delta-hslV, growth: N-lim chemostat, doubling time 6 h.
Setting [4] is: E. coli NCM3722 delta-lon, growth: N-lim chemostat, doubling time 6 h.
Where [5] appears, read: E. coli NCM3722 delta-smpB, growth: N-lim chemostat, doubling time 6 h.
The mark [6] stands for this setting: wild type E. coli NCM3722, growth: C-lim chemostat, doubling time 3 h.
Setting [7] is: wild type E. coli NCM3722, growth: C-lim chemostat, doubling time 6 h.
Setting [8] is: wild type E. coli NCM3722, growth: C-lim chemostat, doubling time 12 h.
Setting [9] is: wild type E. coli NCM3722, growth: N-lim chemostat, doubling time 6 h.
[10] abbreviates: wild type E. coli NCM3722, growth: N-lim chemostat, doubling time 12 h.
[11] abbreviates: wild type E. coli NCM3722, growth: P-lim chemostat, doubling time 6 h.
Setting [12] is: wild type E. coli NCM3722, growth: P-lim chemostat, doubling time 12 h.

± gives the standard deviation of the averaged measurements. Some results are limits rather than exact numbers.

On to “MNKSLVAVGVIVALGVVWTGGAWYTGKKIETHLEDMVAQANAQLKLTAPESNLEVSYQNYHRGVFSSQLQLLVKPIAGKENPWIKSGQSVIFNESVDHGPFPLAQLKKLNLIPSMASIQTTLVNNEVSKPLFDMAKGETPFEINSRIGYSGDSSSDISLKPLNYEQKDEKVAFSGGEFQLNADRDGKAISLSGEAQSGRIDAVNEYNQKVQLTFNNLKTDGSSTLASFGERVGNQKLSLEKMTISVEGKELALLEGMEISGKSDLVNDGKTINSQLDYSLNSLKVQNQDLGSGKLTLKVGQIDGEAWHQFSQQYNAQTQALLAQPEIANNPELYQEKVTEAFFSALPLMLKGDPVITIAPLSWKNSQGESALNLSLFLKDPATTKEAPQTLAQEVDRSVKSLDAKLTIPVDMATEFMTQVAKLEGYQEDQAKKLAKQQVEGASAMGQMFRLTTLQDNTITTSLQYANGQITLNGQKMSLEDFVGMFAMPALNVPAVPAIPQQ”, for which the “total protein half-life in vivo” value reads like this: under setting [1], 6.64 ± 0.32 h; under setting [2], 6.77 ± 0.68 h; under setting [3], 6.24 ± 0.28 h; under setting [4], 6.136 ± 0.016 h; under setting [5], 6 ± 0.23 h; under setting [6], 3.14 ± 0.049 h. Moreover, the “total protein half-life in vivo” value came out at 5.99 ± 0.08 h under setting [7]; 11.8 ± 1.2 h under setting [8]; 6.21 ± 0.15 h under setting [9]; 13.15 ± 0.042 h under setting [10]; 5.98 ± 0.13 h under setting [11]; 12.9 ± 0.87 h under setting [12].

Regarding “MQEYTNHSDTTFALRNISFRVPGRTLLHPLSLTFPAGKVTGLIGHNGSGKSTLLKMLGRHQPPSEGEILLDAQPLESWSSKAFARKVAYLPQQLPPAEGMTVRELVAIGRYPWHGALGRFGAADREKVEEAISLVGLKPLAHRLVDSLSGGERQRAWIAMLVAQDSRCLLLDEPTSALDIAHQVDVLSLVHRLSQERGLTVIAVLHDINMAARYCDYLVALRGGEMIAQGTPAEIMRGETLEMIYGIPMGILPHPAGAAPVSFVY”, the “total protein half-life in vivo” value is, setting by setting: under setting [1], 5.18 h; under setting [2], 5.55 h; under setting [5], 5.19 ± 0.12 h; under setting [6], 2.65 ± 0.19 h; under setting [7], 6.7 h; under setting [8], 11.4 h. The “total protein half-life in vivo” value under setting [9] was 6.03 ± 0.81 h, the “total protein half-life in vivo” value under setting [10] turned out to be 10.7 h and the “total protein half-life in vivo” value under setting [12] came to 12.9 ± 3 h.

In the case of “MIINNVKLVLENEVVSGSLEVQNGEIRAFAESQSRLPEAMDGEGGWLLPGLIELHTDNLDKFFTPRPKVDWPAHSAMSSHDALMVASGITTVLDAVAIGDVRDGGDRLENLEKMINAIEETQKRGVNRAEHRLHLRCELPHHTTLPLFEKLVQREPVTLVSLMDHSPGQRQFANREKYREYYQGKYSLTDAQMQQYEEEQLALAARWSQPNRESIAALCRARKIALASHDDATHAHVAESHQLGSVIAEFPTTFEAAEASRKHGMNVLMGAPNIVRGGSHSGNVAASELAQLGLLDILSSDYYPASLLDAAFRVADDQSNRFTLPQAVKLVTKNPAQALNLQDRGVIGEGKRADLVLAHRKDNHIHIDHVWRQGKRVF”, the “total protein half-life in vivo” value reads like this: under setting [11], 1.05 ± 0.23 h; under setting [12], 1.89 ± 0.87 h.

Take “MSAQVSLELHHRISQFLFHEASLLDDWKFRDWLAQLDEEIRYTMRTTVNAQTRDRRKGVQPPTTWIFNDTKDQLERRIARLETGMAWAEEPPSRTRHLISNCQISETDIPNVFAVRVNYLLYRAQKERDETFYVGTRFDKVRRLEDDNWRLLERDIVLDQAVITSHNLSVLF”: the “total protein half-life in vivo” value runs as follows: under setting [1], > 8 h; under setting [6], 2.05 h; under setting [7], 5.02 h; under setting [8], 8.73 h; under setting [11], 5.1 ± 0.36 h; under setting [12], 9.68 ± 0.98 h.

Turning to “MGSGWHEWPLMIFTVFGQCVAGGFIVLALALLKGDLRAEAQQRVIACMFGLWVLMGIGFIASMLHLGSPMRAFNSLNRVGASALSNEIASGSIFFAVGGIGWLLAMLKKLSPALRTLWLIVTMVLGVIFVWMMVRVYNSIDTVPTWYSIWTPMGFFLTMFMGGPLLGYLLLSLAGVDGWAMRLLPAISVLALVVSGVVSVMQGAELATIHSSVQQAAALVPDYGALMSWRIVLLAVALCLWIAPQLKGYQPAVPLLSVSFILLLAGELIGRGVFYGLHMTVGMAVAS”, the “total protein half-life in vivo” value by setting is: under setting [7], 5.22 h; under setting [12], 10.9 h.

“MRLDKFIAQQLGVSRAIAGREIRGNRVTVDGEIVRNAAFKLLPEHDVAYDGNPLAQQHGPRYFMLNKPQGYVCSTDDPDHPTVLYFLDEPVAWKLHAAGRLDIDTTGLVLMTDDGQWSHRITSPRHHCEKTYLVTLESPVADDTAEQFAKGVQLHNEKDLTKPAVLEVITPTQVRLTISEGRYHQVKRMFAAVGNHVVELHRERIGGITLDADLAPGEYRPLTEEEIASVV [P0AA43]”: the “total protein half-life in vivo” value runs as follows: under setting [1], 5.25 ± 0.067 h; under setting [2], 4.76 ± 0.54 h; under setting [3], 3.68 ± 0.064 h; under setting [4], 4.65 ± 0.39 h; under setting [5], 3.78 ± 0.066 h; under setting [6], 3 ± 0.1 h. Further, the “total protein half-life in vivo” value runs as follows: under setting [7], 4.74 ± 0.18 h; under setting [8], 8.66 ± 0.55 h; under setting [9], 3.57 ± 0.14 h; under setting [10], 6.08 ± 0.51 h; under setting [11], 4 ± 0.33 h; under setting [12], 7.21 ± 0.22 h.

“MLRIADKTFDSHLFTGTGKFASSQLMVEAIRASGSQLVTLAMKRVDLRQHNDAILEPLIAAGVTLLPNTSGAKTAEEAIFAAHLAREALGTNWLKLEIHPDARWLLPDPIETLKAAETLVQQGFVVLPYCGADPVLCKRLEEVGCAAVMPLGAPIGSNQGLETRAMLEIIIQQATVPVVVDAGIGVPSHAAQALEMGADAVLVNTAIAVADDPVNMAKAFRLAVEAGLLARQSGPGSRSYFAHATSPLTGFLEASA”: the “total protein half-life in vivo” value by setting is: under setting [1], 2.21 ± 0.21 h; under setting [2], 1.09 ± 0.22 h; under setting [3], 0.8075 ± 0.0064 h; under setting [4], 1.093 ± 0.0074 h; under setting [5], 0.844 ± 0.015 h; under setting [6], 1.59 ± 0.079 h. Further, the “total protein half-life in vivo” value under setting [7] is 1.61 ± 0.17 h; the “total protein half-life in vivo” value under setting [8] amounted to 1.81 ± 0.88 h; the “total protein half-life in vivo” value under setting [9] was 0.928 ± 0.09 h; the “total protein half-life in vivo” value under setting [10] came out at 1.067 ± 0.0049 h; the “total protein half-life in vivo” value under setting [11] is 2.01 ± 0.17 h; the “total protein half-life in vivo” value under setting [12] was found to be 3.07 ± 0.59 h.

In the case of “MNILGFFQRLGRALQLPIAVLPVAALLLRFGQPDLLNVAFIAQAGGAIFDNLALIFAIGVASSWSKDSAGAAALAGAVGYFVLTKAMVTINPEINMGVLAGIITGLVGGAAYNRWSDIKLPDFLSFFGGKRFVPIATGFFCLVLAAIFGYVWPPVQHAIHAGGEWIVSAGALGSGIFGFINRLLIPTGLHQVLNTIAWFQIGEFTNAAGTVFHGDINRFYAGDGTAGMFMSGFFPIMMFGLPGAALAMYFAAPKERRPMVGGMLLSVAVTAFLTGVTEPLEFLFMFLAPLLYLLHALLTGISLFVATLLGIHAGFSFSAGAIDYALMYNLPAASQNVWMLLVMGVIFFAIYFVVFSLVIRMFNLKTPGREDKEDEIVTEEANSNTEEGLTQLATNYIAAVGGTDNLKAIDACITRLRLTVADSARVNDTMCKRLGASGVVKLNKQTIQVIVGAKAESIGDAMKKVVARGPVAAASAEATPATAAPVAKPQAVPNAVSIAELVSPITGDVVALDQVPDEAFASKAVGDGVAVKPTDKIVVSPAAGTIVKIFNTNHAFCLETEKGAEIVVHMGIDTVALEGKGFKRLVEEGAQVSAGQPILEMDLDYLNANARSMISPVVCSNIDDFSGLIIKAQGHIVAGQTPLYEIKK”, the “total protein half-life in vivo” value worked out at 6.3 ± 0.38 h under setting [1]; 6.68 ± 1.1 h under setting [2]; 6.55 ± 1.2 h under setting [3]; 5.86 ± 0.12 h under setting [4]; 5.83 ± 0.32 h under setting [5]; 3.142 ± 0.004 h under setting [6]. The “total protein half-life in vivo” value runs as follows: under setting [7], 5.88 ± 0.17 h; under setting [8], 11.9 ± 1.4 h; under setting [9], 5.91 ± 0.66 h; under setting [10], 11.5 ± 0.56 h; under setting [11], 6.04 ± 0.14 h; under setting [12], 12.6 ± 0.78 h.

As to “MKKLITANDIREAHARGEQAMSVVLRASIITPEAREVADLLGFTITECDESIPVTASVPASVPADKTESQRIRETIIAQLPEGQFTESLVAQLMEKVMKEKQSLEQGAMQPSFKSVTGKGGIKVIDGSSVKFGRFDGAEPHCVGLTDLVTGDDGSSMAAGFMQWENAFFPWTLNYDEIDMVLEGELHVRHEGQTMIAKAGDVMFIPKGSSIEFGTTSSVKFLYVAWPANWQSL”, the “total protein half-life in vivo” value runs as follows: under setting [1], 5.08 ± 0.37 h; under setting [2], 1.62 h; under setting [3], 1.44 ± 0.19 h; under setting [4], 2.42 ± 0.052 h; under setting [5], 1.55 ± 0.36 h; under setting [6], 2.12 ± 0.14 h. For the same sequence, the “total protein half-life in vivo” value stood at 4.18 ± 0.51 h under setting [7]; 5.42 ± 1.1 h under setting [8]; 1.84 h under setting [9]; 2.19 h under setting [10]; 2.44 h under setting [11]; 3.93 h under setting [12].
